Where “and” joins values, the source holds several entries; their conditions need not be identical. Equal entries are not always repeated.
Target: Amy117, neopullulanase (NPase) from B. pseudofirmus 703 (B. pseudofirmus 703)
Test: AUC; sedimentation velocity, 50 mM Na2HPO4-NaH2PO4 buffer pH 7.0, 20 °C, 38,000 rpm, absorbance at 280 nm, c(s) model in SEDFIT; oligomeric state

percent as a tetramer: 3.3% | percent in the dimerized form: 68.7% | percent in the monomeric form: 24.3% | stoichiometry N: 2 and 4
Substance: Amy117, neopullulanase (NPase) from B. pseudofirmus 703 (enzyme)

Reference: publication PMC9267027
